Assay results from publication PMC5286379.

Tests used:
Experiment in all cases: EMSA
Sox2 HMG (79-aa protein) = conditions: Sox2-Oct heterodimer on SoxOct DNA element CCATGGACATTGTAATGCAAAAGAAGCTG, n = 3-13, read off a plot
Oct4^151M POU domain = conditions: homodimer on MORE (OctOct) DNA element TCCTCATGAATATTCATGAGGA; n = 3-13; parent: est. 7; read off a plot
Oct6^151S POU domain = conditions: homodimer on MORE (OctOct) DNA element TCCTCATGAATATTCATGAGGA; n = 3-13; parent: est. 160; read off a plot

Row | Substance | other: cooperativity factor (Sox2 HMG (79-aa protein); parent: est. 12) | other: cooperativity factor (Oct4^151M POU domain) | other: cooperativity factor (Sox2 HMG (79-aa protein); parent: est. 4.5) | other: cooperativity factor (Oct6^151S POU domain)
1 | Oct4 POU domain S151M | 29 | 140 | – | –
2 | Oct6 POU domain M151S | – | – | 2.5 | 4
